Biological target: T1, Trx-CD20 (thioredoxin-tagged CD20/G4S cassette: Trx, ECL1, (G4S)3 linker, ECL2, C-terminal His-tag) (Homo sapiens, UniProt P11836)
T1 chain: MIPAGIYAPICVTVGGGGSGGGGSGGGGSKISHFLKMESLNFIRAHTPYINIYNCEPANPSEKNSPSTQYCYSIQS
Experiment: ELISA

Ka: 2.66e+12 M⁻¹
B1: Zytux (rituximab, Aryogen Pharmed, Iran) (antibody, V domains shown)
VH: QVQLQQPGAELVKPGASVKMSCKASGYTFTSYNMHWVKQTPGRGLEWIGAIYPGNGDTSYNQKFKGKATLTADKSSSTAYMQLSSLTSEDSAVYYCARSTYYGGDWYFNVWGAGTTVTVSA
VL: QIVLSQSPAILSASPGEKVTMTCRASSSVSYIHWFQQKPGSSPKPWIYATSNLASGVPVRFSGSGSGTSYSLTISRVEAEDAATYYCQQWTSNPPTFGGGTKLEIK
